Test results published in the supplement of paper PMC5998384.

Test system: HeLa Kyoto
Test: melting temperature (median over replicates), in situ; higher = more thermally stable
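Note: HeLa Kyoto cells synchronized by double thymidine or nocodazole block, proteins quantified by TMT10plex mass spectrometry, three independent biological replicates.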

MGST2, sequence (chain, as listed by the source): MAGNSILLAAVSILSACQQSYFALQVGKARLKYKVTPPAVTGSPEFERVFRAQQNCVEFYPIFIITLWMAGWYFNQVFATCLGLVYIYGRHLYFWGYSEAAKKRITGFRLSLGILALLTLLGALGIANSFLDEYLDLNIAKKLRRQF

Substance | melting temperature (cell cycle stage: G1/S) [°C] | melting temperature (cell cycle stage: mitosis) [°C]
MGDEKDSWKVKTLDEILQEKKRRKEQEEKAEIKRLKNSDDRDSKRDSLEEGELRDHRMEITIRNSPYRREDSMEDRGEEDDSLAIKPPQQMSRKEKAHHRKDEKRKEKRRHRSHSAEGGKHARVKEKEREHERRKRHREEQDKARREWERQKRREMAREHSRRERDRLEQLERKRERERKMREQQKEQREQKERERRAEERRKEREARREVSAHHRTMREDYSDKVKASHWSRSPPRPPRERFELGDGRKPGEARPAPAQKPAQLKEEKMEERDLLSDLQDISDSERKTSSAESSSAESGSGSEEEEEEEEEEEEEGSTSEESEEEEEEEEEEEEETGSNSEEASEQSAEEVSEEEMSEDEERENENHLLVVPESRFDRDSGESEEAEEEVGEGTPQSSALTEGDYVPDSPALSPIELKQELPKYLPALQGCRSVEEFQCLNRIEEGTYGVVYRAKDKKTDEIVALKRLKMEKEKEGFPITSLREINTILKAQHPNIVTVREIVVGSNMDKIYIVMNYVEHDLKSLMETMKQPFLPGEVKTLMIQLLRGVKHLHDNWILHRDLKTSNLLLSHAGILKVGDFGLAREYGSPLKAYTPVVVTLWYRAPELLLGAKEYSTAVDMWSVGCIFGELLTQKPLFPGKSEIDQINKVFKDLGTPSEKIWPGYSELPAVKKMTFSEHPYNNLRKRFGALLSDQGFDLMNKFLTYFPGRRISAEDGLKHEYFRETPLPIDPSMFPTWPAKSEQQRVKRGTSPRPPEGGLGYSQLGDDDLKETGFHLTTTNQGASAAGPGFSLKF [CDK11B] | 46.5 | 50.3
MAGLEVLFASAAPAITCRQDALVCFLHWEVVTHGYFGLGVGDQPGPNDKKSELLPAGWNNNKDLYVLRYEYKDGSRKLLVKAITVESSMILNVLEYGSQQVADLTLNLDDYIDAEHLGDFHRTYKNSEELRSRIVSGIITPIHEQWEKANVSSPHREFPPATAREVDPLRIPPHHPHTSRQPPWCDPLGPFVVGGEDLDPFGPRRGGMIVDPLRSGFPRALIDPSSGLPNRLPPGAVPPGARFDPFGPIGTSPPGPNPDHLPPPGYDDMYL [PSMF1] |  | 53
MSLRCGDAARTLGPRVFGRYFCSPVRPLSSLPDKKKELLQNGPDLQDFVSGDLADRSTWDEYKGNLKRQKGERLRLPPWLKTEIPMGKNYNKLKNTLRNLNLHTVCEEARCPNIGECWGGGEYATATATIMLMGDTCTRGCRFCSVKTARNPPPLDASEPYNTAKAIAEWGLDYVVLTSVDRDDMPDGGAEHIAKTVSYLKERNPKILVECLTPDFRGDLKAIEKVALSGLDVYAHNVETVPELQSKVRDPRANFDQSLRVLKHAKKVQPDVISKTSIMLGLGENDEQVYATMKALREADVDCLTLGQYMQPTRRHLKVEEYITPEKFKYWEKVGNELGFHYTASGPLVRSSYKAGEFFLKNLVAKRKTKDL [LIAS] | 52.1 | 53.4
MAGAGSAAVSGAGTPVAGPTGRDLFAEGLLEFLRPAVQQLDSHVHAVRESQVELREQIDNLATELCRINEDQKVALDLDPYVKKLLNARRRVVLVNNILQNAQERLRRLNHSVAKETARRRAMLDSGIYPPGSPGK [SNAPIN] | 53 | 54.5
MELIQDTSRPPLEYVKGVPLIKYFAEALGPLQSFQARPDDLLINTYPKSGTTWVSQILDMIYQGGDLEKCNRAPIYVRVPFLEVNDPGEPSGLETLKDTPPPRLIKSHLPLALLPQTLLDQKVKVVYVARNPKDVAVSYYHFHRMEKAHPEPGTWDSFLEKFMAGEVSYGSWYQHVQEWWELSRTHPVLYLFYEDMKENPKREIQKILEFVGRSLPEETMDFMVQHTSFKEMKKNPMTNYTTVPQELMDHSISPFMRKGMAGDWKTTFTVAQNERFDADYAEKMAGCSLSFRSEL [SULT1A4] | 48.5 | 49.2
MEADGDGEELARLRSVFAACDANRSGRLEREEFRALCTELRVRPADAEAVFQRLDADRDGAITFQEFARGFLGSLRGGRRRDWGPLDPAPAVSEAGPETHDSEEDEGDEDAAAALATSCGPASPGRAWQDFQARLGDEAKFIPREEQVSTLYQNINLVEPRLIQPYEHVIKNFIREIRLQSTEMENLAIAVKRAQDKAAMQLSELEEEMDQRIQAAEHKTRKDEKRKAEEALSDLRRQYETEVGDLQVTIKKLRKLEEQSKRVSQKEDVAALKKQIYDLSMENQKVKKDLLEAQTNIAFLQSELDALKSDYADQSLNTERDLEIIRAYTEDRNSLERQIEILQTANRKLHDSNDGLRSALENSYSKFNRSLHINNISPGNTISRSSPKFIGHSPQPLGYDRSSRSSYVDEDCDSLALCDPLQRTNCEVDSLPESCFDSGLSTLRDPNEYDSEVEYKHQRGFQRSHGVQESFGGDASDTDVPDIRDEETFGLEDVASVLDWKPQGSVSEGSIVSSSRKPISALSPQTDLVDDNAKSFSSQKAYKIVLAGDAAVGKSSFLMRLCKNEFRENISATLGVDFQMKTLIVDGERTVLQLWDTAGQERFRSIAKSYFRKADGVLLLYDVTCEKSFLNIREWVDMIEDAAHETVPIMLVGNKADIRDTAATEGQKCVPGHFGEKLAMTYGALFCETSAKDGSNIVEAVLHLAREVKKRTDKDDSRSITNLTGTNSKKSPQMKNCCNG [RASEF] | 49.8 | 50
MAAAAAGAGSGPWAAQEKQFPPALLSFFIYNPRFGPREGQEENKILFYHPNEVEKNEKIRNVGLCEAIVQFTRTFSPSKPAKSLHTQKNRQFFNEPEENFWMVMVVRNPIIEKQSKDGKPVIEYQEEELLDKVYSSVLRQCYSMYKLFNGTFLKAMEDGGVKLLKERLEKFFHRYLQTLHLQSCDLLDIFGGISFFPLDKMTYLKIQSFINRMEESLNIVKYTAFLYNDQLIWSGLEQDDMRILYKYLTTSLFPRHIEPELAGRDSPIRAEMPGNLQHYGRFLTGPLNLNDPDAKCRFPKIFVNTDDTYEELHLIVYKAMSAAVCFMIDASVHPTLDFCRRLDSIVGPQLTVLASDICEQFNINKRMSGSEKEPQFKFIYFNHMNLAEKSTVHMRKTPSVSLTSVHPDLMKILGDINSDFTRVDEDEEIIVKAMSDYWVVGKKSDRRELYVILNQKNANLIEVNEEVKKLCATQFNNIFFLD [CCZ1B] | 50.9 | 51.8
MLLSIGMLMLSATQVYTILTVQLFAFLNLLPVEADILAYNFENASQTFDDLPARFGYRLPAEGLKGFLINSKPENACEPIVPPPVKDNSSGTFIVLIRRLDCNFDIKVLNAQRAGYKAAIVHNVDSDDLISMGSNDIEVLKKIDIPSVFIGESSANSLKDEFTYEKGGHLILVPEFSLPLEYYLIPFLIIVGICLILIVIFMITKFVQDRHRARRNRLRKDQLKKLPVHKFKKGDEYDVCAICLDEYEDGDKLRILPCSHAYHCKCVDPWLTKTKKTCPVCKQKVVPSQGDSDSDTDSSQEENEVTEHTPLLRPLASVSAQSFGALSESRSHQNMTESSDYEEDDNEDTDSSDAENEINEHDVVVQLQPNGERDYNIANTV [RNF13] | 57.4 | 64.3
MFAKGKGSAVPSDGQAREKLALYVYEYLLHVGAQKSAQTFLSEIRWEKNITLGEPPGFLHSWWCVFWDLYCAAPERRDTCEHSSEAKAFHDYSAAAAPSPVLGNIPPNDGMPGGPIPPGFFQGPPGSQPSPHAQPPPHNPSSMMGPHSQPFMSPRYAGGPRPPIRMGNQPPGGVPGTQPLLPNSMDPTRQQGHPNMGGSMQRMNPPRGMGPMGPGPQNYGSGMRPPPNSLGPAMPGINMGPGAGRPWPNPNSANSIPYSSSSPGTYVGPPGGGGPPGTPIMPSPADSTNSSDNIYTMINPVPPGGSRSNFPMGPGSDGPMGGMGGMEPHHMNGSLGSGDIDGLPKNSPNNISGISNPPGTPRDDGELGGNFLHSFQNDNYSPSMTMSV [SSBP3] | 52.4 | 
MASGGGGGNTGAGGGPGMGLSLGLGLGLSLGMSEATSEAEEEAATAEAVGRLATTLWLRLRGWEAVLAAAQRLLVWEKPLHSLVTAAALNGLFWLLSSSSLRPFFLLSVSLLAYFLLDLWQPRFLPDVSASSPEEPHSDSEGAGSGARPHLLSVPELCRYLAESWLTFQIHLQELLQYKRQNPAQFCVRVCSGCAVLAVLGHYVPGIMISYIVLLSILLWPLVVYHELIQRMYTRLEPLLMQLDYSMKAEANALHHKHDKRKRQGKNAPPGGDEPLAETESESEAELAGFSPVVDVKKTALALAITDSELSDEEASILESGGFSVSRATTPQLTDVSEDLDQQSLPSEPEETLSRDLGEGEEGELAPPEDLLGRPQALSRQALDSEEEEEDVAAKETLLRLSSPLHFVNTHFNGAGSPPDGVKCSPGGPVETLSPETVSGGLTALPGTLSPPLCLVGSDPAPSPSILPPVPQDSPQPLPAPEEEEALTTEDFELLDQGELEQLNAELGLEPETPPKPPDAPPLGPDIHSLVQSDQEAQAVAEP [FAM134A] |  | 55.2
MSSHKGSVVAQGNGAPASNREADTVELAELGPLLEEKGKRVIANPPKAEEEQTCPVPQEEEEEVRVLTLPLQAHHAMEKMEEFVYKVWEGRWRVIPYDVLPDWLKDNDYLLHGHRPPMPSFRACFKSIFRIHTETGNIWTHLLGFVLFLFLGILTMLRPNMYFMAPLQEKVVFGMFFLGAVLCLSFSWLFHTVYCHSEKVSRTFSKLDYSGIALLIMGSFVPWLYYSFYCSPQPRLIYLSIVCVLGISAIIVAQWDRFATPKHRQTRAGVFLGLGLSGVVPTMHFTIAEGFVKATTVGQMGWFFLMAVMYITGAGLYAARIPERFFPGKFDIWFQSHQIFHVLVVAAAFVHFYGVSNLQEFRYGLEGGCTDDTLL [ADIPOR1] | 55.6 | 
RAPGEF6 | 47.3 | 48.9
MAQEVDTAQGAEMRRGAGAARGRASWCWALALLWLAVVPGWSRVSGIPSRRHWPVPYKRFDFRPKPDPYCQAKYTFCPTGSPIPVMEGDDDIEVFRLQAPVWEFKYGDLLGHLKIMHDAIGFRSTLTGKNYTMEWYELFQLGNCTFPHLRPEMDAPFWCNQGAACFFEGIDDVHWKENGTLVQVATISGNMFNQMAKWVKQDNETGIYYETWNVKASPEKGAETWFDSYDCSKFVLRTFNKLAEFGAEFKNIETNYTRIFLYSGEPTYLGNETSVFGPTGNKTLGLAIKRFYYPFKPHLPTKEFLLSLLQIFDAVIVHKQFYLFYNFEYWFLPMKFPFIKITYEEIPLPIRNKTLSGL [CLN5] |  | 53.8
MGST2 | 54.3 | 
MGLELFLDLVSQPSRAVYIFAKKNGIPLELRTVDLVKGQHKSKEFLQINSLGKLPTLKDGDFILTESSAILIYLSCKYQTPDHWYPSDLQARARVHEYLGWHADCIRGTFGIPLWVQVLGPLIGVQVPKEKVERNRTAMDQALQWLEDKFLGDRPFLAGQQVTLADLMALEELMQPVALGYELFEGRPRLAAWRGRVEAFLGAELCQEAHSIILSILEQAAKKTLPTPSPEAYQAMLLRIARIP [GSTT2] | 54.9 | 55.1
MAAHRKHVFVEKVLQRLFPPVPSGQGKREPQTLAVQNPPKKVTSEKVSQKHAEPLTDTGSETPTARRLYTASGPPEGYVPCWPEPSSCGSPENASSGDDTEDQDPHDQPKRRRIRKHKSKKKFKNPNNVLIEQAELEKQQSLLQEKSQRQHTDGTTISKNKKRKLKKKQQIKRKKAAGLAAKAAGVSFMYQPEDSSNEGEGVGEACEEDGVDTSEEDPTLAGEEDVKDTREEDGADASEEDLTRARQEEGADASEEDPTPAGEEDVKDAREEDGVDTIEEDLTRAGEEDGKDTREEDGADASEEDPTWAGEEEGADSGEEDGADASEEDDTITNEKAHSILNFLKSTQEMYFYDGVSRDAASAALADAAEELLDRLASHSMLPSDVSILYHMKTLLLLQDTERLKHALEMFPEHCTMPPDHARVISAFFSYWITHILPEKSSD [ERICH1] |  | 52.6
MRSGEELDGFEGEASSTSMISGASSPYQPTTEPVSQRRGLAGLRCDPDYLRGALGRLKVAQVILALIAFICIETIMACSPCEGLYFFEFVSCSAFVVTGVLLIMFSLNLHMRIPQINWNLTDLVNTGLSAFLFFIASIVLAALNHRAGAEIAAVIFGFLATAAYAVNTFLAVQKWRVSVRQQSTNDYIRARTESRDVDSRPEIQRLDTFSYSTNVTVRKKSPTNLLSLNHWQLA [CMTM4] | 58.1 | 
